Data published in patent US20150139996A1.
Blank lines part the entries; values can stand above or below the substance they belong to.

Key:
[1] = biological target: IgG1 heavy chain with CH3 construct 6 (T366W) (human) [IgG part: P01857]; assay: native MS; transfection P: vector IX alone (tetanus VH, construct 6)
[2] = biological target: IgG1 heavy chain with CH3 construct 6 (T366W) (human) [IgG part: P01857]; assay: SDS-PAGE of protein A-purified supernatant; construct expressed alone
[3] = biological target: IgG1 heavy chain with CH3 construct 71 (L351D, Y349E) (human) [IgG part: P01857]; assay: native MS; combination 5 co-expressed (A: VH MF1337, B: VH MF1122)
[4] = biological target: IgG1 heavy chain with CH3 construct 71 (L351D, Y349E) (human) [IgG part: P01857]; assay: native MS; combination 11 co-expressed (A: VH MF1337, B: VH MF1122)
[5] = biological target: IgG1 heavy chain with CH3 construct 71 (L351D, Y349E) (human) [IgG part: P01857]; assay: SDS-PAGE of protein A-purified supernatant; construct expressed alone
[6] = biological target: IgG1 heavy chain with CH3 construct 7 (T366S, L368A, Y407V) (human) [IgG part: P01857]; assay: as above
[7] = biological target: IgG1 heavy chain with CH3 construct 7 (T366S, L368A, Y407V) (human) [IgG part: P01857]; assay: native MS; transfection Q: vector X alone (thyroglobulin VH, construct 7)
[8] = biological target: IgG1 heavy chain with CH3 construct 76 (L351K, L368K) (human) [IgG part: P01857]; assay: native MS; combination 15 co-expressed (A: VH MF1337, B: VH MF1122)
[9] = biological target: IgG1 heavy chain with CH3 construct 76 (L351K, L368K) (human) [IgG part: P01857]; assay: SDS-PAGE of protein A-purified supernatant; construct expressed alone
[10] = biological target: IgG1 heavy chain with CH3 construct 74 (L351D, Y349D) (human) [IgG part: P01857]; assay: native MS; combination 10 co-expressed (A: VH MF1337, B: VH MF1122)
[11] = biological target: IgG1 heavy chain with CH3 construct 74 (L351D, Y349D) (human) [IgG part: P01857]; assay: SDS-PAGE of protein A-purified supernatant; construct expressed alone
[12] = biological target: IgG1 heavy chain with CH3 construct 3 (K392D, K409D, K439D) (human) [IgG part: P01857]; assay: as above
[13] = biological target: IgG1 heavy chain with CH3 construct 3 (K392D, K409D, K439D) (human) [IgG part: P01857]; assay: native MS; transfection F: vector VIII alone (tetanus VH, construct 3)
[14] = biological target: IgG1 heavy chain with CH3 construct 3 (K392D, K409D, K439D) (human) [IgG part: P01857]; assay: native MS; transfection E: vector VII alone (fibrinogen VH, construct 3)
[15] = biological target: IgG1 heavy chain with CH3 construct 77 (L351R) (human) [IgG part: P01857]; assay: native MS; combination 1 co-expressed (A: VH MF1337, B: VH MF1122)
[16] = biological target: IgG1 heavy chain with CH3 construct 77 (L351R) (human) [IgG part: P01857]; assay: native MS; combination 16 co-expressed (A: VH MF1337, B: VH MF1122)
[17] = biological target: IgG1 heavy chain with CH3 construct 77 (L351R) (human) [IgG part: P01857]; assay: SDS-PAGE of protein A-purified supernatant; construct expressed alone
[18] = biological target: IgG1 heavy chain with CH3 construct 75 (L351D, Y349D, R355D) (human) [IgG part: P01857]; assay: native MS; combination 9 co-expressed (A: VH MF1337, B: VH MF1122)
[19] = biological target: IgG1 heavy chain with CH3 construct 75 (L351D, Y349D, R355D) (human) [IgG part: P01857]; assay: SDS-PAGE of protein A-purified supernatant; construct expressed alone
[20] = biological target: IgG1 heavy chain with CH3 construct 78 (T366E) (human) [IgG part: P01857]; assay: native MS; combination 1 co-expressed (A: VH MF1337, B: VH MF1122)
[21] = biological target: IgG1 heavy chain with CH3 construct 78 (T366E) (human) [IgG part: P01857]; assay: SDS-PAGE of protein A-purified supernatant; construct expressed alone
[22] = biological target: IgG1 heavy chain with CH3 construct 70 (L351E, Y349E) (human) [IgG part: P01857]; assay: native MS; combination 4 co-expressed (A: VH MF1337, B: VH MF1122)
[23] = biological target: IgG1 heavy chain with CH3 construct 70 (L351E, Y349E) (human) [IgG part: P01857]; assay: SDS-PAGE of protein A-purified supernatant; construct expressed alone
[24] = biological target: IgG1 heavy chain with CH3 construct 80 (L351E) (human) [IgG part: P01857]; assay: native MS; combination 13 co-expressed (A: VH MF1337, B: VH MF1122)
[25] = biological target: IgG1 heavy chain with CH3 construct 80 (L351E) (human) [IgG part: P01857]; assay: native MS; combination 14 co-expressed (A: VH MF1337, B: VH MF1122)
[26] = biological target: IgG1 heavy chain with CH3 construct 80 (L351E) (human) [IgG part: P01857]; assay: SDS-PAGE of protein A-purified supernatant; construct expressed alone
[27] = biological target: IgG1 heavy chain with CH3 construct 2 (K392D, K409D) (human) [IgG part: P01857]; assay: native MS; transfection D: vector VI alone (tetanus VH, construct 2)
[28] = biological target: IgG1 heavy chain with CH3 construct 2 (K392D, K409D) (human) [IgG part: P01857]; assay: SDS-PAGE of protein A-purified supernatant; construct expressed alone
[29] = biological target: IgG1 heavy chain with CH3 construct 2 (K392D, K409D) (human) [IgG part: P01857]; assay: native MS; transfection C: vector V alone (fibrinogen VH, construct 2)
[30] = biological target: IgG1 heavy chain with CH3 construct 73 (L351D, Y349E, L368E) (human) [IgG part: P01857]; assay: native MS; combination 6 co-expressed (A: VH MF1337, B: VH MF1122)
[31] = biological target: IgG1 heavy chain with CH3 construct 73 (L351D, Y349E, L368E) (human) [IgG part: P01857]; assay: SDS-PAGE of protein A-purified supernatant; construct expressed alone
[32] = biological target: IgG1 heavy chain with CH3 construct 79 (T366R) (human) [IgG part: P01857]; assay: native MS; combination 14 co-expressed (A: VH MF1337, B: VH MF1122)
[33] = biological target: IgG1 heavy chain with CH3 construct 79 (T366R) (human) [IgG part: P01857]; assay: SDS-PAGE of protein A-purified supernatant; construct expressed alone

Substance: IgG1 heavy chain with CH3 construct 6 (T366W) (from UniProt P01857-1)
Full IgG found (%) [1]: 18%
Half molecules found (%) [1]: 82%
% IgG [2]: 27.6%
% half molecule [2]: 72.4%

Substance: IgG1 heavy chain with CH3 construct 7 (T366S, L368A, Y407V) (from UniProt P01857-1)
% IgG [6]: 58.6%
% half molecule [6]: 41.4%
Full IgG found (%) [7]: 42%
Half molecules found (%) [7]: 58%

Substance: IgG1 heavy chain with CH3 construct 76 (L351K, L368K) (from UniProt P01857-1)
% BB found [8]: 2.5%
% IgG [9]: 56.6%
% half molecule [9]: 43.4%

Substance: IgG1 heavy chain with CH3 construct 3 (K392D, K409D, K439D) (from UniProt P01857-1)
% IgG [12]: 24.5%
% half molecule [12]: 75.5%
Full IgG found (%) [13]: 36%
Half molecules found (%) [13]: 64%
Full IgG found (%) [14]: 24%
Half molecules found (%) [14]: 76%

Substance: IgG1 heavy chain with CH3 construct 75 (L351D, Y349D, R355D) (from UniProt P01857-1)
% BB found [18]: 2%
% IgG [19]: 89.9%
% half molecule [19]: 10.1%

Substance: IgG1 heavy chain with CH3 construct 78 (T366E) (from UniProt P01857-1)
% AB found [15]: 81%
% AA found [20]: 3%
% IgG [21]: 44.4%
% half molecule [21]: 55.6%

Substance: IgG1 heavy chain with CH3 construct 2 (K392D, K409D) (from UniProt P01857-1)
Full IgG found (%) [27]: 77%
Half molecules found (%) [27]: 23%
% IgG [28]: 30.9%
% half molecule [28]: 69.1%
Full IgG found (%) [29]: 23%
Half molecules found (%) [29]: 77%

Substance: IgG1 heavy chain with CH3 construct 79 (T366R) (from UniProt P01857-1)
% AA found [32]: 4%
% AB found [25]: 38%
% IgG [33]: 29.6%
% half molecule [33]: 70.4%

Results, then the substance that gave them:

% BB found [3]: 1%
% BB found [4]: 0%
% IgG [5]: 79.7%
% half molecule [5]: 20.3%
Substance: IgG1 heavy chain with CH3 construct 71 (L351D, Y349E) (from UniProt P01857-1)

% BB found [10]: 1%
% IgG [11]: 88.6%
% half molecule [11]: 11.4%
Substance: IgG1 heavy chain with CH3 construct 74 (L351D, Y349D) (from UniProt P01857-1)

% BB found [15]: 2%
% BB found [16]: 1%
% IgG [17]: 100%
Substance: IgG1 heavy chain with CH3 construct 77 (L351R) (from UniProt P01857-1)

% BB found [22]: 0%
% IgG [23]: 67.8%
% half molecule [23]: 32.2%
Substance: IgG1 heavy chain with CH3 construct 70 (L351E, Y349E) (from UniProt P01857-1)

% BB found [24]: 10%
% BB found [25]: 36%
% IgG [26]: 100%
Substance: IgG1 heavy chain with CH3 construct 80 (L351E) (from UniProt P01857-1)

% BB found [30]: 1%
% IgG [31]: 79.3%
% half molecule [31]: 20.7%
Substance: IgG1 heavy chain with CH3 construct 73 (L351D, Y349E, L368E) (from UniProt P01857-1)
